Experimental findings from US20090123479A1 (published 2009) are described below.

Assay [1] has as its target T1, recombinant human IL-23 (human, UniProt Q9NPF7 20-189; P29460 23-328).
T1 construct: also called hIL-23
T1 sequence 1: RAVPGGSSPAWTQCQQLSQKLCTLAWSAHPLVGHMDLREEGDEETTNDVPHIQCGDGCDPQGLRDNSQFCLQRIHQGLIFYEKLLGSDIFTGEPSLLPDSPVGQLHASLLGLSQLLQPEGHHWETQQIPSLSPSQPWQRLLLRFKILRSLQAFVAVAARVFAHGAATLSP
T1 sequence 2: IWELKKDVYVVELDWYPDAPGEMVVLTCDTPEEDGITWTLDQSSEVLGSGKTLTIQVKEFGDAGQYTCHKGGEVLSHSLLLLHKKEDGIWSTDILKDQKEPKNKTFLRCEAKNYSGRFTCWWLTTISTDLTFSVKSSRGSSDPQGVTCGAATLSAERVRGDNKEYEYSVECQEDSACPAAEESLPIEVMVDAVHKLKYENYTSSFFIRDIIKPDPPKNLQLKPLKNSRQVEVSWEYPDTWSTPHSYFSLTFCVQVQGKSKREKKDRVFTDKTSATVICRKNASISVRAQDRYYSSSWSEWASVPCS
Put plainly: IL-23/IL-23R inhibition ELISA (first protocol, OD490): plate coated with human IL23R Fc chimera, antibody pre-incubated with constant human IL-23, bound IL-23 detected with biotinylated anti-human IL-12; tissue culture supernatant. The procedure:
Chimeric and humanized mAbs were assessed for their ability to neutralise human IL-23 binding to human IL-23 receptor, and cyno IL23 binding to human IL23 receptor. Plates were coated with human IL23R Fc chimera at 1 μg/diluent (bicarbonate buffer). 50 μl/well of this mixture was incubated overnight at 4° C. The plates were then washed twice with Tris Buffered Saline with 0.05% Tween 20 (TBST). Plates were blocked with 1% BSA TBST 100 μl/well for a minimum of 1 hour at room temperature. The plates were then washed twice with Tris Buffered Saline with 0.05% Tween 20 (TBST). Various concentrations of antibody were incubated in a separate plate with a constant concentration of IL-23 for 1 hour at room temperature. 50 ul of each mixture were transferred to the assay plate and incubated at RT for 1 hr. They were then washed twice with Tris Buffered Saline with 0.05% Tween 20 (TBST). Bound IL23 was detected by anti human 1L12 Biotin labelled Ab (R&D systems BAF219) diluted to 100 ng/ml in 1% BSA TBST. 50 μl/well of the biotinylated antibody was added and incubated at RT for 1 hour. The plates were then washed twice with Tris Buffered Saline with 0.05% Tween 20 (TBST). ExtrAvidin-Peroxidase (Sigma E2886) was diluted 1/1000 in 1% BSA TBST, 50 μl/well was added to the plates. […] The plate was read at OD490 nm using the SOftmaxPRO versamax plate reader.
A general note: ELISA stands for enzyme-linked immunosorbent assay.

Assay [2] deals with T1, recombinant human IL-23. The assay can be described thus: sandwich ELISA (optimised protocol, OD450): plate coated with anti-human IL-12, antibody pre-incubated with constant human IL-23, bound antibody detected with anti-human IgG gamma chain HRP; purified antibody. The procedure:
Optimised assay conditions: Plates were coated with anti human IL12 at 2 μg/diluent (phosphate buffered saline). 50 μl/well of this mixture was incubated overnight at 4° C. The plates were then washed three times with Phosphate Buffered Saline with 0.05% Tween 20 (PBST). Plates were blocked with 4% skim milk powder (Fluka BioChemika #70166) PBS 200 μl/well for a minimum of 1 hour at room temperature. The plates were then washed three times with Phosphate Buffered Saline+0.05% Tween 20 (PBST). Various concentrations of antibody were incubated in a separate plate with a constant concentration of IL-23 for 1 hour at room temperature. 50 ul of each mixture were transferred to the assay plate and incubated at RT for 1 hr. They were then washed three times with Phosphate Buffered Saline+0.05% Tween 20 (PBST). […] 50 μl/well of the detection antibody was added and incubated at RT for 1 hour. The plates were then washed three times with Phosphate Buffered Saline+0.05% Tween 20 (PBST). 50 μl/well of TMB was added to the plates and incubated at RT for 10 min. 50 μl/well of 1 MH₂SO₄ was added. The plate was read at OD450 nm using the SOftmaxPRO versamax plate reader.

Assay [3] has as its target T1, recombinant human IL-23. Put plainly: IL-23/IL-23R inhibition ELISA (optimised protocol, OD450): plate coated with human IL23R Fc chimera, antibody pre-incubated with constant human IL-23, bound IL-23 detected with biotinylated anti-human IL-12; purified antibody. On the procedure:
(§1) Optimised protocol: Plates were coated with human IL23R Fc chimera at […] (phosphate buffered saline). 50 μl/well of this mixture was incubated overnight at 4° C. The plates were then washed three times with Phosphate Buffered Saline with 0.05% Tween 20 (PBST). Plates were blocked with 4% skim milk powder (Fluka BioChemika #70166) PBST 100 μl/well for a minimum of 1 hour at room temperature. The plates were then washed three times with Phosphate Buffered Saline+0.05% Tween 20 (PBST). Various concentrations of antibody were incubated in a separate plate with a constant concentration of IL-23 for 1 hour at room temperature. 50 ul of each mixture were transferred to the assay plate and incubated at RT for 1 hr. They were then washed three times with Phosphate Buffered Saline+0.05% Tween 20 (PBST). Bound IL23 was detected by anti human 1L12 Biotin labelled Ab (R&D systems BAF219) diluted to 100 ng/ml in 4% skim milk powder (Fluka BioChemika #70166) PBST. 50 μl/well of the biotinylated antibody was added and incubated at RT for 1 hour. The plates were then washed three times with Phosphate Buffered Saline+0.05% Tween 20 (PBST). SA HRP (GE healthcare RPN4401) was diluted 1/4000 in 4% skim m ilk powder (Fluka BioChemika #70166) PBS, 50 μl/well was added to the plates. The plates were then washed three times with Phosphate Buffered Saline+0.05% Tween 20 (PBST). 50 ul/well of TMB was added to the plates and incubated at RT for 15 min. 25 μl/well of 3 MH₂SO₄ was added to the wells already containing TMB. The plate was read at OD450 nm using the SOftmaxPRO versamax plate reader.

Assay [4] deals with T1, recombinant human IL-23. Put plainly: SPR (Biacore T100), CHO supernatant antibody captured on Protein A or anti-human IgG, IL-23 analyte at 256, 64, 16, 4, 1 nM. A general note: In SPR one partner is held on a chip, and binding of the other changes the refractive index at the surface.
In assay [5] the target is T1, recombinant human IL-23. The assay can be described thus: SPR (Biacore 3000), CHO supernatant antibody captured on Protein A or anti-human IgG, IL-23 analyte at 256, 64, 16, 4 nM.
The target in assay [6] is T2, recombinant cynomologus IL-23 (cynomolgus, limits assumed).
T2 construct: also called cynomolgus IL-23; cyno IL23
T2 chain 1: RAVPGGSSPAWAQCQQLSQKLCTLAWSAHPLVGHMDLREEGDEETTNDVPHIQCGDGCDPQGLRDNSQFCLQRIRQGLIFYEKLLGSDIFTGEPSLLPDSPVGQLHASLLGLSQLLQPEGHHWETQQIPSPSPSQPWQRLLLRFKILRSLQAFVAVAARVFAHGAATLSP
T2 chain 2: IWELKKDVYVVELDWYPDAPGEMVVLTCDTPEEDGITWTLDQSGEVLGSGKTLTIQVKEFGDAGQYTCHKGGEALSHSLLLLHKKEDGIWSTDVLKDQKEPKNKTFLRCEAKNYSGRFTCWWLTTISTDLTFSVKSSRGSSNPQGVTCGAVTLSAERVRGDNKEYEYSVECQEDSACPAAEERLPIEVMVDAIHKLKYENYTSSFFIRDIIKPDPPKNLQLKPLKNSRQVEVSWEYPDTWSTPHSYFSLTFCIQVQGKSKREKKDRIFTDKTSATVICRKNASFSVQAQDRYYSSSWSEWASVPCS
The assay can be described thus: IL-23/IL-23R inhibition ELISA (optimised protocol, OD450): plate coated with human IL23R Fc chimera, antibody pre-incubated with constant cynomolgus IL-23, bound IL-23 detected with biotinylated anti-human IL-12; purified antibody. On the procedure: as §1

B1: A3M1 (antibody, human IgG1, kappa, V domains shown)
VH: QVQLVQSGAEVKKPGSSVKVSCKASGYTFTSYGITWVRQAPGQGLEWMGENYPRSGNTYYNEKFKGRVTITADKSTSTAYMELSSLRSEDTAVYYCARSEFISTVVAPYYYALDYWGQGTLVTVSS
VL: DIVMTQSPDSLAVSLGERATINCKASKKVTIFGSISALHWYQQKPGQPPKLIYNGAKLESGVSDRFSDSGSQNRSPFGNQLSFTLTISSLQAEDVAVYYCLQNKEVPYTFGGGTKVEIKR
notes: Full length chains
Turning to B1, the figures for the “IC50 (read off the curve)” value in assay [1], in assay [3] and in assay [6] were about 10 ng/mL, about 0.5 nM and about 0.8 nM, respectively. In assay [2], the EC50 (read off the curve) (usually the concentration at which the effect is half-maximal) was about 0.04 nM. Besides, the figures for the dissociation constant Kd in assay [4] and in assay [5] were 2.4 nM and 1.5 nM, respectively. Further, the dissociation rate constant (koff) (as a rule, the first-order rate constant of dissociation) in assay [4] stood at 0.00031 s⁻¹; in assay [5], 0.00036 s⁻¹. The kon (commonly the second-order rate constant of association) came to 130000 M⁻¹ s⁻¹ in assay [4] and 240000 M⁻¹ s⁻¹ in assay [5].
